# ± gives the uncertainty stated by the source.
# B1: Protein S100-G, residues 1 to 79; numbered along this chain, P02633 (parent)
# chain: MSAKKSPEELKGIFEKYAAKEGDPNQLSKEELKLLLQTEFPSLLKGPSTLDELFEELDKNGDGEVSFEEFQVLVKKISQ
# Variants of: B1
# Experiment: abundance fitness (aPCA) (normalised: wild type 0, dead -1); higher = more abundant; growth selection in yeast, the domain comes from the species named
# Settings: Bos taurus
row,Variant,abundance fitness
1,V74I,0.066 ± 0.067
2,V74M,0.016 ± 0.072
3,V74W,0.063 ± 0.082
4,V74G,-0.023 ± 0.071
5,V74N,-0.001 ± 0.071
6,V74L,-0.018 ± 0.054
7,V74R,-0.245 ± 0.061
8,V74S,0 ± 0.057
9,V74C,-0.069 ± 0.077
10,V74E,-0.004 ± 0.092
11,V74D,-0.044 ± 0.083
12,V74T,0.024 ± 0.063
13,V74K,0.041 ± 0.078
14,V74Q,0.102 ± 0.071
15,E68G,-0.06 ± 0.067
16,E68A,-0.016 ± 0.064
17,E68C,-0.073 ± 0.079
18,E68K,0.018 ± 0.075
19,E68H,-0.001 ± 0.074
20,E68N,-0.047 ± 0.071
21,E68P,0.009 ± 0.067
22,E68F,-0.062 ± 0.074
23,E68R,-0.046 ± 0.061
24,E68D,-0.005 ± 0.083

row,Variant,abundance fitness
1,E68Y,-0.216 ± 0.076
2,E68M,-0.044 ± 0.075
3,E68Q,-0.099 ± 0.078
4,E68L,-0.098 ± 0.057
5,E68T,-0.012 ± 0.062
6,Q71V,-0.058 ± 0.073
7,Q71M,-0.032 ± 0.088
8,Q71F,-0.107 ± 0.085
9,Q71S,0.017 ± 0.066
10,Q71C,-0.101 ± 0.089
11,Q71N,-0.06 ± 0.082
12,Q71G,0.009 ± 0.08
13,Q71R,-0.091 ± 0.071
14,Q71T,-0.031 ± 0.072
15,Q71K,-0.074 ± 0.097
16,Q71L,0.031 ± 0.064
17,Q71I,-0.054 ± 0.077
18,Q71D,-0.038 ± 0.087
19,Q71E,0.068 ± 0.098
20,Q71W,-0.244 ± 0.092
21,Q71Y,-0.168 ± 0.087
22,Q71A,-0.031 ± 0.073
23,Q71H,-0.029 ± 0.078
24,Q71P,-0.25 ± 0.072

row,Variant,abundance fitness
1,V72A,-0.034 ± 0.081
2,V72L,-0.004 ± 0.063
3,V72D,-0.068 ± 0.1
4,V72G,0.038 ± 0.077
5,V72S,-0.043 ± 0.066
6,V72Y,-0.059 ± 0.087
7,V72M,-0.035 ± 0.082
8,V72E,-0.092 ± 0.1
9,V72K,0.022 ± 0.085
10,V72I,-0.022 ± 0.083
11,V72T,0.053 ± 0.079
12,V72P,-0.018 ± 0.078
13,V72Q,-0.059 ± 0.082
14,V72N,-0.012 ± 0.092
15,V72F,-0.032 ± 0.082
16,V72H,-0.029 ± 0.082
17,F67K,-0.172 ± 0.075
18,F67L,-0.059 ± 0.06
19,F67E,-0.063 ± 0.077
20,F67Y,-0.022 ± 0.087
21,F67I,-0.161 ± 0.084
22,F67G,-0.175 ± 0.063
23,F67S,-0.097 ± 0.065
24,F67T,-0.201 ± 0.07

row,Variant,abundance fitness
1,F67N,-0.131 ± 0.086
2,F67P,-0.257 ± 0.077
3,F67R,-0.141 ± 0.06
4,F67W,-0.038 ± 0.071
5,F67M,-0.176 ± 0.072
6,F67V,-0.059 ± 0.061
7,F67H,-0.12 ± 0.094
8,F67Q,0.04 ± 0.079
9,K76S,-0.119 ± 0.061
10,K76D,-0.127 ± 0.088
11,K76R,-0.094 ± 0.071
12,K76W,-0.293 ± 0.097
13,K76T,-0.175 ± 0.064
14,K76Q,-0.056 ± 0.079
15,K76M,-0.218 ± 0.087
16,K76L,-0.247 ± 0.059
17,K76H,-0.153 ± 0.072
18,K76C,-0.29 ± 0.089
19,K76N,-0.196 ± 0.076
20,K76P,-0.238 ± 0.066
21,K76V,-0.191 ± 0.071
22,K76E,-0.126 ± 0.1
23,K76G,0.011 ± 0.091
24,K76I,-0.131 ± 0.074

row,Variant,abundance fitness
1,K75L,-0.045 ± 0.059
2,K75S,-0.023 ± 0.063
3,K75G,-0.022 ± 0.082
4,K75I,-0.167 ± 0.081
5,K75W,-0.125 ± 0.087
6,K75T,-0.073 ± 0.067
7,K75Y,-0.173 ± 0.084
8,K75C,-0.148 ± 0.092
9,K75H,0.01 ± 0.078
10,K75R,-0.074 ± 0.068
11,K75D,-0.063 ± 0.098
12,K75M,-0.098 ± 0.079
13,K75V,-0.074 ± 0.076
14,K75P,-0.186 ± 0.073
15,K75F,-0.151 ± 0.075
16,K75Q,-0.11 ± 0.083
17,E69Q,0.016 ± 0.08
18,E69W,-0.253 ± 0.085
19,E69T,-0.013 ± 0.077
20,E69M,0.022 ± 0.091
21,E69R,-0.056 ± 0.07
22,E69C,-0.074 ± 0.084
23,E69G,0.06 ± 0.086
24,E69N,-0.215 ± 0.1

row,Variant,abundance fitness
1,E69A,-0.04 ± 0.08
2,E69K,-0.016 ± 0.099
3,E69F,-0.215 ± 0.1
4,E69S,-0.07 ± 0.068
5,E69H,-0.007 ± 0.079
6,E69L,-0.006 ± 0.061
7,E69D,0.009 ± 0.11
8,E69V,-0.021 ± 0.083
9,E69I,-0.055 ± 0.094
10,F70A,-0.157 ± 0.072
11,F70G,-0.73 ± 0.079
12,F70T,-0.162 ± 0.07
13,F70Y,-0.039 ± 0.076
14,F70V,-0.165 ± 0.07
15,F70M,-0.105 ± 0.084
16,F70D,-1.14 ± 0.11
17,F70C,-0.169 ± 0.099
18,F70S,-0.531 ± 0.064
19,F70E,-1.25 ± 0.11
20,F70K,-0.965 ± 0.09
21,F70L,-0.157 ± 0.061
22,F70H,-1 ± 0.083
23,F70Q,-1.01 ± 0.085
24,F70R,-0.797 ± 0.066

row,Variant,abundance fitness
1,F70I,-0.534 ± 0.082
2,F70P,-0.94 ± 0.077
3,F70W,-0.115 ± 0.082
4,F70N,-1.25 ± 0.093
5,L73Q,-0.28 ± 0.082
6,L73D,-0.668 ± 0.1
7,L73F,-0.124 ± 0.089
8,L73C,0.065 ± 0.11
9,L73V,-0.017 ± 0.073
10,L73Y,-0.05 ± 0.086
11,L73P,-0.797 ± 0.087
12,L73W,0.015 ± 0.093
13,L73S,-0.187 ± 0.072
14,L73R,-0.473 ± 0.071
15,L73A,-0.112 ± 0.072
16,L73M,-0.05 ± 0.082
17,L73T,-0.071 ± 0.072
18,L73E,-0.247 ± 0.099
19,L73G,-0.041 ± 0.078
20,L73K,-0.413 ± 0.082
21,L73N,-0.273 ± 0.086
22,L73H,-0.151 ± 0.085
23,L73I,-0.016 ± 0.082

# From the Human Domainome abundance scans (Beltran et al. 2025)
